{
  "source": "paper PMC10875768",
  "about": "“Structural basis for antibody recognition of the proximal MUC16 ectodomain” (Journal of Ovarian Research, 2024)",
  "key": {"[1]": {"molecular_target": "T1, MBP-MUC16^ecto (maltose binding protein fused to the 26-residue MUC16 ectodomain segment) (Homo sapiens)", "T1 construct": "linker between MBP and the MUC16 segment; Cloned into pMal-C5X (NEB); Only one of the two PDB entries holds this chain; also called MBP-fused MUC16-target; MBP-tagged MUC16-target (wt); source: E. coli BL21-RIL (DE3), purified (amylose resin, Superdex-75); not shown: MBP, N-terminal, kept", "T1 chain": "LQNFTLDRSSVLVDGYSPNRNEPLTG", "test": "pull-down; MBP pull-down on amylose resin; MBP-tagged MUC16-target as bait (~20 µg), scFv as prey at 2-fold molar excess; 50 mM Tris-HCl pH 8.0, 400 mM NaCl, 1 mM EDTA, 1 mM DTT, 4 °C, 3 h; three washes; SDS-PAGE", "conditions": "both partners purified"}, "[2]": {"molecular_target": "T1, MBP-MUC16^ecto (maltose binding protein …)", "test": "ITC; ITC200, 23 °C; scFv (12.8 µM) in the cell, MUC16 peptide (144 µM) or MBP-MUC16^ecto (130 µM) in the syringe; 50 mM Tris pH 8.0, 400 mM NaCl (the results say pH 7.4); average of three experiments", "conditions": "both partners purified"}, "[3]": {"molecular_target": "T2, commercially synthesized MUC16^ecto peptide (26 residues) (Homo sapiens)", "T2 construct": "also called synthesized MUC16-target; the synthesized peptide; source: synthetic peptide (commercially synthesized)", "T2 chain": "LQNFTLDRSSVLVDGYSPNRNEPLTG", "test": "ITC; ITC200, 23 °C; scFv (12.8 µM) in the cell, MUC16 peptide (144 µM) or MBP-MUC16^ecto (130 µM) in the syringe; 50 mM Tris pH 8.0, 400 mM NaCl (the results say pH 7.4); average of three experiments", "conditions": "both partners purified"}, "[4]": {"molecular_target": "T3, native glycosylated MUC16 expressed on cancer cells (OVCAR3, SKBR3) (human (endogenous in OVCAR3 and SKBR3), UniProt Q8WXI7, glycosylated (native))", "T3 construct": "MUC16 (mucin 16), as expressed on the surface of OVCAR3 and SKBR3 cells; also called Mucin 16; cellular MUC16; source: endogenous, on OVCAR3 and SKBR3 cells", "test": "immunostaining of cells or tissue; Alexa-conjugated scFv on fixed cells; Alexa-350-WGA as membrane marker; OVCAR3 and SKBR3 (MUC16-expressing), HEK293T/17 and SKOV3 as controls", "conditions": "one partner purified"}},
  "data": [
    {"binder": "4H11-scFv with VH double mutations S53A/D106A (scFv, V domains shown, as the VH of m1 (hVH2, E1-S123); linker (GGGGS)5; as the VL of m1 (hVL1, D1-R113 = scFv residues 149-261); Made by QuikChange mutagenesis of m1; also called scFv mutant S53A/D106A; source: ExpiCHO-S, transfected (same lentivector as the wild type)) VH: EVKLQESGGGFVKPGGSLRVSCAASGFTFSSYAMSWVRLAPEMRLEWVATISAAGGYIFYSDSVQGRFTISRDNAKNSLHLQMGSLRSGDTAMYYCARQGFGNYGAYYAMDYWGQGTTVTVSS VL: DIELTQSPSSLAVSAGERVTMNCKSSQSLLNSRTRKNQLAWYQQKPGQSPELLIYWASTRQSGVPDRFSGSGSGTDFTLTISSVQAEDVAVYYCQQSYNLLTFGPGTKLEIK", "values": [
      {"measurement": "binding result", "setting": "[1]", "result": "binds"}
    ]},
    {"binder": "4H11-scFv (H2L1), VH-linker (GGGGS)5-VL (scFv, V domains shown, humanized 4H11 VH (hVH2 of H2L1), E1-S123; linker (GGGGS)5, residues 124-148 of the scFv; humanized 4H11 VL (hVL1 of H2L1), D1-R113, which are residues 149-261 of the scFv; N-terminal signal peptide in the construct for secretion; also called h4H11-scFv; H2L1 4H11-scFv) VH: EVKLQESGGGFVKPGGSLRVSCAASGFTFSSYAMSWVRLAPEMRLEWVATISSAGGYIFYSDSVQGRFTISRDNAKNSLHLQMGSLRSGDTAMYYCARQGFGNYGDYYAMDYWGQGTTVTVSS VL: DIELTQSPSSLAVSAGERVTMNCKSSQSLLNSRTRKNQLAWYQQKPGQSPELLIYWASTRQSGVPDRFSGSGSGTDFTLTISSVQAEDVAVYYCQQSYNLLTFGPGTKLEIK", "values": [
      {"measurement": "Kd", "setting": "[2]", "result": "~2", "unit": "nM"},
      {"measurement": "Kd", "setting": "[3]", "result": "~1.4", "unit": "nM"}
    ]},
    {"binder": "Alexa-fluorescence conjugated 4H11-scFv (scFv, V domains shown, as the VH of m1 (hVH2, E1-S123); linker (GGGGS)5; as the VL of m1 (hVL1, D1-R113 = scFv residues 149-261); also called Alexa-4H11-scFv; Alexa-labeled scFv; source: purified 4H11-scFv labeled with Alexa Fluor 488 carboxylic acid, further purified by Superdex-75) VH: EVKLQESGGGFVKPGGSLRVSCAASGFTFSSYAMSWVRLAPEMRLEWVATISSAGGYIFYSDSVQGRFTISRDNAKNSLHLQMGSLRSGDTAMYYCARQGFGNYGDYYAMDYWGQGTTVTVSS VL: DIELTQSPSSLAVSAGERVTMNCKSSQSLLNSRTRKNQLAWYQQKPGQSPELLIYWASTRQSGVPDRFSGSGSGTDFTLTISSVQAEDVAVYYCQQSYNLLTFGPGTKLEIK", "values": [
      {"measurement": "binding result", "setting": "[4]", "result": "binds"}
    ]},
    {"binder": "4H11-scFv with VL double mutations Y246A/N247A (scFv, V domains shown, as the VH of m1 (hVH2, E1-S123); linker (GGGGS)5; as the VL of m1 (hVL1, D1-R113) with the stated changes. numbers count on: the whole scFv (VL begins at D149); Made by QuikChange mutagenesis of m1; also called scFv mutant Y246A/N247A; source: ExpiCHO-S, transfected (same lentivector as the wild type)) VH: EVKLQESGGGFVKPGGSLRVSCAASGFTFSSYAMSWVRLAPEMRLEWVATISSAGGYIFYSDSVQGRFTISRDNAKNSLHLQMGSLRSGDTAMYYCARQGFGNYGDYYAMDYWGQGTTVTVSS VL: DIELTQSPSSLAVSAGERVTMNCKSSQSLLNSRTRKNQLAWYQQKPGQSPELLIYWASTRQSGVPDRFSGSGSGTDFTLTISSVQAEDVAVYYCQQSAALLTFGPGTKLEIK", "values": [
      {"measurement": "binding result", "setting": "[1]", "result": "binds"}
    ]}
  ]
}
